The target in test [1] is T1, LTβR-Ig (UniProt P36941 31-227, limits assumed).
T1 construct: extracellular domain; also called LTβR Ig receptor; recombinantly produced LTβR receptor; not shown: human Fc region
The test is described as follows: thermal challenge assay; T50 = temperature at which 50% of the molecules keep binding to plate-coated LTβR-Ig (DELFIA); unit taken from the x axis.

Test [2] concerns the target T2, sLTβR (UniProt P36941 31-227, limits assumed).
T2 construct: Used in solution in ITC and as the analyte in SPR; also called soluble lymphotoxin beta receptor; antigen
The test is described as follows: SPR (Biacore 3000), scFv captured on anti-PENTA-His, sLTβR as analyte, 1:1 Langmuir fit. (In general: Surface plasmon resonance follows binding to a sensor surface in real time, without labels.)
Description: All experiments were performed in HBS-EP buffer, pH 7.4. […] 0.1 μM solutions of test scFvs were injected over the chip at a flow rate of 5 μl/min for 10 minutes and captured onto the surface via the immobilized PENTA-His antibody. To investigate binding between sLTβR and captured scFv, a concentration series of sLTβR (1, 2, 5, 10, 25, 50, 100, and 200 nM) was double injected at a flow rate of 30 μl/min onto the scFv-coated surface. Background was subtracted from test sample sensorgrams using sensorgram data from a flow cell containing buffer only and sensorgram data from the PENTA-His surface where scFv was injected followed by an injection of buffer instead of sLTβR. The curves were analyzed using the BiaEval 3.0 manufacturer's software. KD values were calculated by fitting kinetic association and dissociation curves to a 1:1 Langmuir binding model. Chip surfaces were regenerated by two consecutive 10 μL injections of 0.1 M glycine, pH 3.0.

Test [3] deals with T2, sLTβR. The test is described as follows: SPR (Biacore 3000).
Test [4] concerns the target T2, sLTβR. The test is described as follows: SPR (Biacore 3000); with VH44/VL100 disulfide (second 'VH-S16E, VL-S46L' row, below the disulfide wild-type).
Test [5] addresses T1, LTβR-Ig. The test is described as follows: thermal challenge assay, remaining binding to plate-coated LTβR-Ig read by DELFIA; unit taken from the x axis.

T2 sequence (P36941 31-227 limits assumed): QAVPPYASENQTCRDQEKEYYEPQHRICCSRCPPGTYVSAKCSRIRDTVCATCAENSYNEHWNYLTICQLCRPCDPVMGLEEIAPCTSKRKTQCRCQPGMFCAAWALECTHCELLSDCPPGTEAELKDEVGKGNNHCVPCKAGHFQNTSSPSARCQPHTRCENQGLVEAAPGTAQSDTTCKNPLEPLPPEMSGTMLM
T1 sequence (P36941 31-227 limits assumed): as above

B1: BHA10 (Gly4Ser)4 scFv (scFv)
scFv: QVQLVQSGAEVKKPGSSVKVSCKASGYTFTTYYLHWVRQAPGQGLEWMGWIYPGNVHAQYNEKFKGRVTITADKSTSTAYMELSSLRSEDTAVYYCARSWEGFPYWGQGTTVTVSSGGGGSGGGGSGGGGSGGGGSDIQMTQSPSSLSASVGDRVTITCKASQNVGINVAWYQQKPGKAPKSLISSASYRYSGVPSRFSGSGSGTDFTLTISSLQPEDFATYFCQQYDTYPFTFGQGTKVEIK
notes: His-tagged (captured through anti-PENTA-His); also called Wild-type, (G4S)*4 linker; GS4
On to B1, for which the T50 in the test with LTβR-Ig [1] was 53 °C. Further, the dissociation constant (Kd) was 2.5 nM with sLTβR [2] and 2.1 nM with sLTβR [3].

B2: BHA10 scFv VH-S16E, VL-S46L, (G4S)4 linker, no disulfide (scFv, name in Kabat numbering)
scFv: QVQLVQSGAEVKKPGESVKVSCKASGYTFTTYYLHWVRQAPGQGLEWMGWIYPGNVHAQYNEKFKGRVTITADKSTSTAYMELSSLRSEDTAVYYCARSWEGFPYWGQGTTVTVSSGGGGSGGGGSGGGGSGGGGSDIQMTQSPSSLSASVGDRVTITCKASQNVGINVAWYQQKPGKAPKLLISSASYRYSGVPSRFSGSGSGTDFTLTISSLQPEDFATYFCQQYDTYPFTFGQGTKVEIK
notes: Positions are Kabat numbers of the VH and VL domains, not of the scFv entry; also called 076 VL-S46L + VH-S16E; pIEH076
In turn, B2 gave a Kd with sLTβR [3] of 3.4 nM.

B3: BHA10 scFv VH44/VL100 disulfide, VH-S16E, VL-S46L, (G4S)4 linker (scFv, name in Kabat numbering)
scFv: QVQLVQSGAEVKKPGESVKVSCKASGYTFTTYYLHWVRQAPGQCLEWMGWIYPGNVHAQYNEKFKGRVTITADKSTSTAYMELSSLRSEDTAVYYCARSWEGFPYWGQGTTVTVSSGGGGSGGGGSGGGGSGGGGSDIQMTQSPSSLSASVGDRVTITCKASQNVGINVAWYQQKPGKAPKLLISSASYRYSGVPSRFSGSGSGTDFTLTISSLQPEDFATYFCQQYDTYPFTFGCGTKVEIK
notes: It is read here as the disulfide version; also called 080 VL-S46L + VH-S16E + ss
As to B3, in the test with sLTβR [4], the Kd came to 4 nM.

B4: BHA10 scFv VH-S16E, VH-V55G, VL-S46L, (G4S)4 linker (scFv, name in Kabat numbering)
scFv: QVQLVQSGAEVKKPGESVKVSCKASGYTFTTYYLHWVRQAPGQGLEWMGWIYPGNGHAQYNEKFKGRVTITADKSTSTAYMELSSLRSEDTAVYYCARSWEGFPYWGQGTTVTVSSGGGGSGGGGSGGGGSGGGGSDIQMTQSPSSLSASVGDRVTITCKASQNVGINVAWYQQKPGKAPKLLISSASYRYSGVPSRFSGSGSGTDFTLTISSLQPEDFATYFCQQYDTYPFTFGQGTKVEIK
notes: Positions are Kabat numbers of the VH and VL domains; also called 087 VL-S46L + VH-S16E, V55G; pIEH087
Consider B4, for which the affinity in the test with sLTβR [3], expressed as Kd, was 3.8 nM.

B5: BHA10 scFv VH-S16E, (G4S)4 linker (scFv, name in Kabat numbering)
scFv: QVQLVQSGAEVKKPGESVKVSCKASGYTFTTYYLHWVRQAPGQGLEWMGWIYPGNVHAQYNEKFKGRVTITADKSTSTAYMELSSLRSEDTAVYYCARSWEGFPYWGQGTTVTVSSGGGGSGGGGSGGGGSGGGGSDIQMTQSPSSLSASVGDRVTITCKASQNVGINVAWYQQKPGKAPKSLISSASYRYSGVPSRFSGSGSGTDFTLTISSLQPEDFATYFCQQYDTYPFTFGQGTKVEIK
notes: Positions are Kabat numbers of the VH domain; also called 074 VH-S16E; pIEH032
Take B5: the Kd with sLTβR [3] was 2 nM.

B6: BHA10 scFv VH-P101D, (G4S)4 linker (scFv, name in Kabat numbering)
scFv: QVQLVQSGAEVKKPGSSVKVSCKASGYTFTTYYLHWVRQAPGQGLEWMGWIYPGNVHAQYNEKFKGRVTITADKSTSTAYMELSSLRSEDTAVYYCARSWEGFDYWGQGTTVTVSSGGGGSGGGGSGGGGSGGGGSDIQMTQSPSSLSASVGDRVTITCKASQNVGINVAWYQQKPGKAPKSLISSASYRYSGVPSRFSGSGSGTDFTLTISSLQPEDFATYFCQQYDTYPFTFGQGTKVEIK
notes: Built on the (G4S)4 scFv; The position is a Kabat number of VH; also called 077 VH-P101D; pIEH058
On to B6, for which, in the test with sLTβR [3], binding was characterised by a dissociation constant (Kd) of 5.2 nM.

B7: BHA10 VH44:VL100/(Gly4Ser)4 scFv (scFv)
scFv: QVQLVQSGAEVKKPGSSVKVSCKASGYTFTTYYLHWVRQAPGQCLEWMGWIYPGNVHAQYNEKFKGRVTITADKSTSTAYMELSSLRSEDTAVYYCARSWEGFPYWGQGTTVTVSSGGGGSGGGGSGGGGSGGGGSDIQMTQSPSSLSASVGDRVTITCKASQNVGINVAWYQQKPGKAPKSLISSASYRYSGVPSRFSGSGSGTDFTLTISSLQPEDFATYFCQQYDTYPFTFGCGTKVEIK
notes: Cys at Kabat VH44 and VL100 form a disulfide; also called Wild-type, (G4S)*4 linker w/ VH44/VL100 disulfide; 009 (ss)
B7: in the test with LTβR-Ig [1], the T50 was 62 °C. The dissociation constant (Kd) amounted to 4.3 nM with sLTβR [2] and 3.3 nM with sLTβR [3]. Further, in the test with LTβR-Ig [5], the “midpoint temperature of the thermal challenge curve (T50)” value came out at 63.3 °C.

B8: BHA10 scFv VH-S16Q, VL-S46L, (G4S)4 linker, no disulfide (scFv, name in Kabat numbering)
scFv: QVQLVQSGAEVKKPGQSVKVSCKASGYTFTTYYLHWVRQAPGQGLEWMGWIYPGNVHAQYNEKFKGRVTITADKSTSTAYMELSSLRSEDTAVYYCARSWEGFPYWGQGTTVTVSSGGGGSGGGGSGGGGSGGGGSDIQMTQSPSSLSASVGDRVTITCKASQNVGINVAWYQQKPGKAPKLLISSASYRYSGVPSRFSGSGSGTDFTLTISSLQPEDFATYFCQQYDTYPFTFGQGTKVEIK
notes: Positions are Kabat numbers of the VH and VL domains; also called 078 VL-S46L + VH-S16Q; pIEH078
In the test with sLTβR [3], B8 came in with a Kd of 4.2 nM.

Broadly, the Kd is the constant that tells how readily two partners part at equilibrium. The low end stands for higher affinity, the high end for lower affinity.

Source of the values: US20080050370A1 (Biogen, published 2008).
